Data reported in IntAct's records for PubMed 12522104.

B1: Peroxisome proliferator-activated receptor gamma coactivator 1-alpha (Homo sapiens), Q9UBK2 (parent)
chain: MAWDMCNQDSESVWSDIECAALVGEDQPLCPDLPELDLSELDVNDLDTDSFLGGLKWCSDQSEIISNQYNNEPSNIFEKIDEENEANLLAVLTETLDSLPVDEDGLPSFDALTDGDVTTDNEASPSSMPDGTPPPQEAEEPSLLKKLLLAPANTQLSYNECSGLSTQNHANHNHRIRTNPAIVKTENSWSNKAKSICQQQKPQRRPCSELLKYLTTNDDPPHTKPTENRNSSRDKCTSKKKSHTQSQSQHLQAKPTTLSLPLTPESPNDPKGSPFENKTIERTLSVELSGTAGLTPPTTPPHKANQDNPFRASPKLKSSCKTVVPPPSKKPRYSESSGTQGNNSTKKGPEQSELYAQLSKSSVLTGGHEERKTKRPSLRLFGDHDYCQSINSKTEILINISQELQDSRQLENKDVSSDWQGQICSSTDSDQCYLRETLEASKQVSPCSTRKQLQDQEIRAELNKHFGHPSQAVFDDEADKTGELRDSDFSNEQFSKLPMFINSGLAMDGLFDDSEDESDKLSYPWDGTQSYSLFNVSPSCSSFNSPCRDSVSPPKSLFSQRPQRMRSRSRSFSRHRSCSRSPYSRSRSRSPGSRSSSRSCYYYESSHYRHRTHRNSPLYVRSRSRSPYSRRPRYDSYEEYQHERLKREEYRREYEKRESERAKQRERQRQKAIEERRVIYVGKIRPDTTRTELRDRFEVFGEIEECTVNLRDDGDSYGFITYRYTCDAFAALENGYTLRRSNETDFELYFCGRKQFFKSNYADLDSNSDDFDPASTKSKYDSLDFDSLLKEAQRSLRR
B2: Peroxisome proliferator-activated receptor gamma coactivator 1-alpha (Homo sapiens), Q9UBK2 (parent)
chain: B1 chain
partner: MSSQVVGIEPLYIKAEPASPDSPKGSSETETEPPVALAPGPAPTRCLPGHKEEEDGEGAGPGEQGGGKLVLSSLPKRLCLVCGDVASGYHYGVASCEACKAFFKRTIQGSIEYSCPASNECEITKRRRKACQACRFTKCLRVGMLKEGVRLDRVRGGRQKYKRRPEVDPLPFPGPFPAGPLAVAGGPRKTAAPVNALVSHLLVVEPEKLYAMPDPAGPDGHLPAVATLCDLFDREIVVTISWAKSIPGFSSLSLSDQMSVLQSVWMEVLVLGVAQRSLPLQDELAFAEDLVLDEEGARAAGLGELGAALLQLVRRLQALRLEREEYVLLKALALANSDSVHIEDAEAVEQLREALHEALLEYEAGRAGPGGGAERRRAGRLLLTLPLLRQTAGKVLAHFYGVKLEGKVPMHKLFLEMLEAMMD

What was measured:
[1] = variants of: B1; conditions: with rxra_human RXRA
[2] = variants of: B1; conditions: with esr1_human ESR1, P03372
[3] = variants of: B2; conditions: with err1_human ESRRA
[4] = variants of: B2; conditions: with err1_human ESRRA; remark: listed apart in the source

Chain of esr1_human ESR1, P03372 (P03372 whole entry): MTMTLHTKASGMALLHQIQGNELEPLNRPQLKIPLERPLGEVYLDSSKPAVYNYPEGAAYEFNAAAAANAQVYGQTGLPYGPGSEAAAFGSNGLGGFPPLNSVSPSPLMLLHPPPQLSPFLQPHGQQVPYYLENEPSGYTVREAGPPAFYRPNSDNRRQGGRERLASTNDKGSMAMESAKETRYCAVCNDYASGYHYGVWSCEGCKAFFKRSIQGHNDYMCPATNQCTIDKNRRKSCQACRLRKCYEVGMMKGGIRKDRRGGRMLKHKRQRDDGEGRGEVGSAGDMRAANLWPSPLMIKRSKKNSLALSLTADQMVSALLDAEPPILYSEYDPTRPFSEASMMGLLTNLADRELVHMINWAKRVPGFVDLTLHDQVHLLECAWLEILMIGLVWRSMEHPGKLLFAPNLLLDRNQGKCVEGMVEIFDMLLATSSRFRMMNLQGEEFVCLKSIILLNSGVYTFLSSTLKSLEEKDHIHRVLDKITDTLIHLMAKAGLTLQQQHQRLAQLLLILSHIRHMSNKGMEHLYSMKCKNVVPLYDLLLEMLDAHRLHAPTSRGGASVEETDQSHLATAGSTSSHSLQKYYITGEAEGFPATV

Row | Variant | effect of a mutation on the interaction [1] | effect of a mutation on the interaction [2] | effect of a mutation on the interaction [3] | effect of a mutation on the interaction [4]
1 | L147A;L148A | disrupting interaction strength | decreasing interaction strength |  | 
2 | L147A;L148A;L210A;L211A | disrupting interaction strength | disrupting interaction strength |  | 
3 | L210A;L211A | decreasing interaction strength | with no effect |  | 
4 | L210A;L211A |  |  | decreasing interaction strength | with no effect
5 | L147A;L148A |  |  | decreasing interaction strength | with no effect
6 | L147A;L148A;L210A;L211A |  |  | disrupting interaction strength | 
